Source: PMC6804483 (Acta Pharmaceutica Sinica. B, 2019)
Each block holds one molecule with its values, some of them ahead of it. [ ]: non-standard residue; d: D form. The star is where a group is joined. 5FAM = O=C1OC2(c3ccc(O)cc3Oc3cc(O)ccc32)c2ccc(C(=O)*)cc21; pT = C[C@@H](OP(=O)(O)O)[C@H](N)C(=O)O

Experiments:
PLK2 Polo-box domain = target: T1, PLK2 Polo-box domain (Homo sapiens, UniProt Q9NYY3); experiment: fluorescence polarization competition with fluorescein-labeled phosphopeptide; format: binding
T1 sequence (Q9NYY3 355-685): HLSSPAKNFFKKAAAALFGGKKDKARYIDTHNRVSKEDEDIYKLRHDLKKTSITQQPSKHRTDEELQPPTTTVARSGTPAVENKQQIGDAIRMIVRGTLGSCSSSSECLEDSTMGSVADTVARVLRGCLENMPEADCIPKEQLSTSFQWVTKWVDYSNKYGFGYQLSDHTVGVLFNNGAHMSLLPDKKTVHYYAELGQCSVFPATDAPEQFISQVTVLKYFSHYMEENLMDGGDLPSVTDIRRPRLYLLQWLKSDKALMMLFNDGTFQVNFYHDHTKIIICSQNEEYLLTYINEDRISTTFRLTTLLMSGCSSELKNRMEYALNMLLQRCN

[1] = target: Polo-like kinase 1 (PLK1) Polo-box domain (Homo sapiens, UniProt P53350); experiment: microscale thermophoresis with labeled PLK1 PBD; format: binding
Chain of Polo-like kinase 1 (PLK1) Polo-box domain (P53350 326-603): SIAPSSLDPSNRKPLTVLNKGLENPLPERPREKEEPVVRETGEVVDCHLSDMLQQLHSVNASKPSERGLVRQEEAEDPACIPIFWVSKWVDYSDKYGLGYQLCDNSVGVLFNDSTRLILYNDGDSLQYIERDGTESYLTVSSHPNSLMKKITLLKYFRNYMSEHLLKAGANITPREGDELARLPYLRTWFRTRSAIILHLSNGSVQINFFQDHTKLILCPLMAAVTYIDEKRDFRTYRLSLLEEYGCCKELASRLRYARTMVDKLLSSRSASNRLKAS

[2] = target: T2, Polo-box domain (PBD) of human PLK2 (aa 355–685) (human, UniProt Q9NYY3 355-685); experiment: fluorescence polarisation
T2 sequence (looked up): T1 sequence (Q9NYY3 355-685)

[3] = target: T3, Polo-box domain (PBD) of human PLK3 (aa 335–646) (human, UniProt Q9H4B4 335-646); experiment: fluorescence polarisation
T3 sequence (looked up): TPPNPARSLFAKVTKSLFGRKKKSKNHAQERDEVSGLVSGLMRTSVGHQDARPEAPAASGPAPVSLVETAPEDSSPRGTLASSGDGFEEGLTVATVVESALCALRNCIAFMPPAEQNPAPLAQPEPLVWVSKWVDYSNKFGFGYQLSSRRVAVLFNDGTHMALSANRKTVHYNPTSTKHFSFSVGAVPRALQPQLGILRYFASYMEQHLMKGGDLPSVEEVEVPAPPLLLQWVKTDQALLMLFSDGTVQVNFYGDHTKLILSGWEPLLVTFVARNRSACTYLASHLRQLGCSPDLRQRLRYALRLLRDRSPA

[4] = target: Polo-box domain (PBD) of human PLK1 (aa 326–603) (human, UniProt P53350 326-603); experiment: fluorescence polarisation
Chain of Polo-box domain (PBD) of human PLK1 (aa 326–603) (P53350 326-603): as the sequence (P53350 326-603) above

Molecule: CCOC(=O)c1oc2ccccc2c1CBr [MCC1019, 3-bromomethyl-benzofuran-2-carboxylic acid ethyl ester]
- IC50 (PLK2 Polo-box domain): 44.1 ± 14.4 µM
- Kd [1]: 18.9 µM

B1: 5-carboxyfluorescein-GPMQTSpTPKNG-OH (peptide)
peptide: 5FAM-GPMQTS[pT]PKNG-OH
SMILES: CSCC[C@H](NC(=O)[C@@H]1CCCN1C(=O)CNC(=O)c1ccc2c(c1)C(=O)OC21c2ccc(O)cc2Oc2cc(O)ccc21)C(=O)N[C@@H](CCC(N)=O)C(=O)N[C@H](C(=O)N[C@@H](CO)C(=O)N[C@H](C(=O)N1CCC[C@H]1C(=O)N[C@@H](CCCCN)C(=O)N[C@@H](CC(N)=O)C(=O)NCC(=O)O)[C@@H](C)OP(=O)(O)O)[C@@H](C)O
- binding result [2]: binds

Next, values leading:

- binding result [3]: binds
B2: 5-carboxyfluorescein-GPLATSpTPKNG-OH (peptide)
peptide: 5FAM-GPLATS[pT]PKNG-OH
SMILES: CC(C)C[C@H](NC(=O)[C@@H]1CCCN1C(=O)CNC(=O)c1ccc2c(c1)C(=O)OC21c2ccc(O)cc2Oc2cc(O)ccc21)C(=O)N[C@@H](C)C(=O)N[C@H](C(=O)N[C@@H](CO)C(=O)N[C@H](C(=O)N1CCC[C@H]1C(=O)N[C@@H](CCCCN)C(=O)N[C@@H](CC(N)=O)C(=O)NCC(=O)O)[C@@H](C)OP(=O)(O)O)[C@@H](C)O

- binding result [4]: binds
B3: 5-carboxyfluorescein-GPMQSpTPLNG-OH (peptide)
peptide: 5FAM-GPMQS[pT]PLNG-OH
SMILES: CSCC[C@H](NC(=O)[C@@H]1CCCN1C(=O)CNC(=O)c1ccc2c(c1)C(=O)OC21c2ccc(O)cc2Oc2cc(O)ccc21)C(=O)N[C@@H](CCC(N)=O)C(=O)N[C@@H](CO)C(=O)N[C@H](C(=O)N1CCC[C@H]1C(=O)N[C@@H](CC(C)C)C(=O)N[C@@H](CC(N)=O)C(=O)NCC(=O)O)[C@@H](C)OP(=O)(O)O
